Experiments:
[1] = target: T1, human recombinant α5β1 extracellular domain (human, UniProt P08648 42-995; P05556 21-728); experiment: Biacore, antibody immobilised, α5β1 extracellular domain flowed, 25.0 C, 4.0 mM CaCl2
T1 construct: extracellular domain; also called α5β1 recombinant extracellular domain; extracellular domain of α5β1
Description: (§1) Binding kinetics and nominal avidity of 22B5/DLE to the extracellular domain of α5β1 was determined using Biacore analysis (Biacore AB, Uppsala, Sweden). To perform BIAcore kinetic analyses, the 22B5/DLE antibody was immobilized on a biosensor chip and various concentrations of human recombinant α5β1 extracellular domain were flowed across the surface at 25.0° C. (see FIG. 3). The binding data were fit globally to a simple one-to-one binding model with drifting baseline. 22B5/DLE binds reversibly to α5β1. […] The KD was greater when measured in the absence of divalent cations, consistent with cation-dependent activation of integrin.

[2] = target: T1, human recombinant α5β1 extracellular …; experiment: Biacore, antibody immobilised, α5β1 extracellular domain flowed, 25.0 C, 4.0 mM MgCl2
Description: as §1

[3] = target: T2, human integrin α5β1 on cells (endogenous, HUVEC; tumor or endothelial-expressed) (human, UniProt P08648 42-1049; P05556 21-798); experiment: FACS on HUVEC, geometric mean against mAb concentration, two-state equilibrium model
T2 construct: whole, on cells; also called cell surface integrin α5; endogenous α5β1
T2 sequence (P08648 42-1049, chain 1 of 2): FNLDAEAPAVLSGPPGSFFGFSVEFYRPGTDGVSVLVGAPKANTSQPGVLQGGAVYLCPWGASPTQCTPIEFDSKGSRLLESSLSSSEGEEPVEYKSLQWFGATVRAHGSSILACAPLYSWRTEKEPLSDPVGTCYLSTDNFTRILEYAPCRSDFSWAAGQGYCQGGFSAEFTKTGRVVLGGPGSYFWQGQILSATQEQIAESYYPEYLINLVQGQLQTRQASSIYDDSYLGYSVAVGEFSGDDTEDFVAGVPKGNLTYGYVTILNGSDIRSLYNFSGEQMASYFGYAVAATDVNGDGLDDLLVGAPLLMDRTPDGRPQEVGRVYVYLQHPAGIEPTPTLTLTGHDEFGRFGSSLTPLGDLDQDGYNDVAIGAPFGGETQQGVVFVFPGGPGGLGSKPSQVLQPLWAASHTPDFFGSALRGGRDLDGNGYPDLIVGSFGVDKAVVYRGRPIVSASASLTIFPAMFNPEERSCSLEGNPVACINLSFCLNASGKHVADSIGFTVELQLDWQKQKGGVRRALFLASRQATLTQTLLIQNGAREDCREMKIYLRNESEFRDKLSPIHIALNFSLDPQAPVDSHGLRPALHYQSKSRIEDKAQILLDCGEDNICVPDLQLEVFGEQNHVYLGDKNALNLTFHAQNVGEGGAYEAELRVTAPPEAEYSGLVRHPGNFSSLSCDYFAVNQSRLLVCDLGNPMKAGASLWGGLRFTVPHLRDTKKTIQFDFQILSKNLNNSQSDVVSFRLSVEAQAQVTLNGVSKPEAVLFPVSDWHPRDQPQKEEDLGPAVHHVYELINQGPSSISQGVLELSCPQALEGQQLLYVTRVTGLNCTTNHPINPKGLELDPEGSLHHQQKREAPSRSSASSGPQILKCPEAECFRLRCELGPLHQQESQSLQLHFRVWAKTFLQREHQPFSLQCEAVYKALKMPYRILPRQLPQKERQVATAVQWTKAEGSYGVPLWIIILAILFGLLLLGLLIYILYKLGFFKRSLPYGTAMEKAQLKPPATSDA
T2 sequence (P05556 21-798, chain 2 of 2): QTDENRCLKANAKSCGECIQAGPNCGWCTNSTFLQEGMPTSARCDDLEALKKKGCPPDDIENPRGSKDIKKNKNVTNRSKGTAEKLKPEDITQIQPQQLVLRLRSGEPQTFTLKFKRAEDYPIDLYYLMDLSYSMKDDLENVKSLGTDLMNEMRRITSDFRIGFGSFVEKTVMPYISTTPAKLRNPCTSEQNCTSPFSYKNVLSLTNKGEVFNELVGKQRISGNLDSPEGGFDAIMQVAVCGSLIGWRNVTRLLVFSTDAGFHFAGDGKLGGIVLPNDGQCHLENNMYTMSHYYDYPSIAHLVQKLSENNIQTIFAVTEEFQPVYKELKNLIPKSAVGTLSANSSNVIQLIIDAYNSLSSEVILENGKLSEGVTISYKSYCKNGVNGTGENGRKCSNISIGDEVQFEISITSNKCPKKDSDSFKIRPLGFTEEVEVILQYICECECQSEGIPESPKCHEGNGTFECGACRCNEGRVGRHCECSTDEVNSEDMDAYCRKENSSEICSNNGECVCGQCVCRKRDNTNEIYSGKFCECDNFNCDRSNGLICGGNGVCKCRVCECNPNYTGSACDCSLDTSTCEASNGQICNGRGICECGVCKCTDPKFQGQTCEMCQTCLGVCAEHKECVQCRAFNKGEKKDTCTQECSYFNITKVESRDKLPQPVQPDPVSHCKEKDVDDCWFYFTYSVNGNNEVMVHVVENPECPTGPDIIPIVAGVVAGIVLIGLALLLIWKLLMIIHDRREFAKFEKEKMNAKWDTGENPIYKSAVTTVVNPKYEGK
Description: (§2) The 22B5/DLE antibody was tested for its binding affinity to cell surface integrin α5 using a FACS assay, employing endogenous human integrin α5β1 expressing cells (HUVEC). Briefly, the cells were detached using trypsin-EDTA and washed with cold PBS. After being aliquoted into 96-well plates, the cells were blocked by serum and incubated with different concentrations of specific mAb for 1 hour at 4° C. Subsequently, the cells were washed and incubated with an anti-human κ secondary antibody conjugated with the R-PE fluorophore and analyzed using a FACSCalibur flow cytometer. 10,000 events were collected for each sample without applying any gating. For KD determination, the Geometric Mean of each sample histogram was calculated and plotted as a function of the mAb concentration. KD was calculated after fitting to a two-state equilibrium model.

[4] = target: T2, human integrin α5β1 on cells …; experiment: cell-based or functional assay
[5] = target: T2, human integrin α5β1 on cells …; experiment: FACS on HUVEC (endogenous human α5β1), GeoMean against mAb concentration, fitted; experiment 031307
Description: as §2, with “22B5/DLE, 24C7/DLE, 1 D9/DLE, and 2D2/DLE antibodies were” for “22B5/DLE antibody was”, “their” for “its”

[6] = target: T2, human integrin α5β1 on cells …; experiment: cell-based or functional assay; remark: listed apart in the source

T1 sequence (P08648 42-995, chain 1 of 2): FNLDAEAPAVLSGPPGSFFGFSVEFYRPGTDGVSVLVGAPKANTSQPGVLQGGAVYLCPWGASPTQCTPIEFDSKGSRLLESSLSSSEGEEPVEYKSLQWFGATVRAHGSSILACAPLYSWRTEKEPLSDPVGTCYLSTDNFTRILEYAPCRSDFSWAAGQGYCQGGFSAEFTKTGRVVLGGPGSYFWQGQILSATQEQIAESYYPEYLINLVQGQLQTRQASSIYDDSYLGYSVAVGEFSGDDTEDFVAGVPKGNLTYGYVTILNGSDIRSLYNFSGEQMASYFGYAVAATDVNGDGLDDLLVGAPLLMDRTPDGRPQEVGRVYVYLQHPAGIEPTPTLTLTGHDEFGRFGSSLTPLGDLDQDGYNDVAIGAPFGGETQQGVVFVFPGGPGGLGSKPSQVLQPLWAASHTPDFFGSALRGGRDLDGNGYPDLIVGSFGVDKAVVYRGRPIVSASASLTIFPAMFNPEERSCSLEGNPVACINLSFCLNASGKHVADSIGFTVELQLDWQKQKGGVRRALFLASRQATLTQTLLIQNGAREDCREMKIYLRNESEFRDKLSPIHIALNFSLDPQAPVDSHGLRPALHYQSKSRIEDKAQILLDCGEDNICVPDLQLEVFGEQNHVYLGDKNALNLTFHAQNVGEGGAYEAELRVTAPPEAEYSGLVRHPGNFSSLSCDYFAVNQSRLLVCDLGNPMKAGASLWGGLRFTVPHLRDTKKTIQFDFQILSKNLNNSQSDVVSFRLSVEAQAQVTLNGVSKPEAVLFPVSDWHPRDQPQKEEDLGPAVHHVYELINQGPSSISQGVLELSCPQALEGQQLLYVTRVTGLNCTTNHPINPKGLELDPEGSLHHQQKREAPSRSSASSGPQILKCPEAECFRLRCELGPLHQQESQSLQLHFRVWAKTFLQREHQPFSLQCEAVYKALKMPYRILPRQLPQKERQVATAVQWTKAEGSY
T1 sequence (P05556 21-728, chain 2 of 2): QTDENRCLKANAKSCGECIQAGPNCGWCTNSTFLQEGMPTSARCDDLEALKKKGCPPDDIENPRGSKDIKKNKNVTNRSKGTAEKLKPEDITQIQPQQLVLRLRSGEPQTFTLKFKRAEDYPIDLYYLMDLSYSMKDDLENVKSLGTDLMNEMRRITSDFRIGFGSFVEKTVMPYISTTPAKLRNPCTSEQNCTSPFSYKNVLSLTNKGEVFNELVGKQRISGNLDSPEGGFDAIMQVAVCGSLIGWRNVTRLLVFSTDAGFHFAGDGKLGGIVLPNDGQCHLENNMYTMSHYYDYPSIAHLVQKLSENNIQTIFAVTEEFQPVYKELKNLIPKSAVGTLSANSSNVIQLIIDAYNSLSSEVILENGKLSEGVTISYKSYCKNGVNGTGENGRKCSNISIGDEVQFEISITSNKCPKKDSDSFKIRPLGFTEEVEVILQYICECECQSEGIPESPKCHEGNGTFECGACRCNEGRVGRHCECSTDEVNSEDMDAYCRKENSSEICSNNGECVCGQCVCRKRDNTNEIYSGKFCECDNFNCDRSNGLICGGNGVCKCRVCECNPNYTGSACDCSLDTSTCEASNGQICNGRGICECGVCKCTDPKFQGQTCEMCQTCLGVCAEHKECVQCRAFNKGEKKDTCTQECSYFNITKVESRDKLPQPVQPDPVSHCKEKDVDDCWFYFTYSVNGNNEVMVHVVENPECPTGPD

Kd [1]: 2.7 nM
koff [1]: 0.0012 s⁻¹
kon [1]: 450000 M⁻¹ s⁻¹
Kd [2]: 4.1 nM
koff [2]: 0.0014 s⁻¹
kon [2]: 340000 M⁻¹ s⁻¹
Kd [3]: 2.15 nM
IC50, inhibition of HUVEC adhesion to fibronectin (fluorescence 485/535 nM) [4]: 1.01 nM
Kd [5]: 1.99 nM
ADCC EC50 (up to 80% target cell lysis), human PBMCs [6]: 0.04 nM
B1: 22B5/DLE (antibody, human IgG1, kappa)
heavy: QLQLQESGPGLVKPSETLSLTCTVSGGSISSSSYWGWIRQPPGKGLEWIGSIYYSGRNYNNPSLKSRVTISVDTSKNQFSLKLSSVTAADTAVYYCARHYYGSGSSYYYYDLDVWGQGTTVTVSSASTKGPSVFPLAPSSKSTSGGTAALGCLVKDYFPEPVTVSWNSGALTSGVHTFPAVLQSSGLYSLSSVVTVPSSSLGTQTYICNVNHKPSNTKVDKKVEPKSCDKTHTCPPCPAPELLGGPDVFLFPPKPKDTLMISRTPEVTCVVVDVSHEDPEVKFNWYVDGVEVHNAKTKPREEQYNSTYRVVSVLTVLHQDWLNGKEYKCKVSNKALPLPEEKTISKAKGQPREPQVYTLPPSREEMTKNQVSLTCLVKGFYPSDIAVEWESNGQPENNYKTTPPVLDSDGSFFLYSKLTVDKSRWQQGNVFSCSVMHEALHNHYTQKSLSLSPGK
light: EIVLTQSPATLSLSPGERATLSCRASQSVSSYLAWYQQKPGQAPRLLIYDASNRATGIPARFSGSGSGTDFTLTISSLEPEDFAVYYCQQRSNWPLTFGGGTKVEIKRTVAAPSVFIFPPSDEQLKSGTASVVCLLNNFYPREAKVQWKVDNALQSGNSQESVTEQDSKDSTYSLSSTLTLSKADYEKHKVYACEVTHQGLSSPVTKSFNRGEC
notes: Human IgG1 with Fc mutations S247D, A338L, I340E; the VH already holds the germline back-mutations I30S and N33S; also called 22B5 IgG1 DLE; 22B5 G1 DLE
